Broadly, the stoichiometry N is the number of molecules, sites or subunits per partner or assembly. A word on the Ki: it is a dissociation constant, usually derived from enzyme kinetics or from competition with a known ligand. A lower Ki goes with higher affinity.

Assay [1] deals with Escherichia coli dUTPase Q93H mutant (Escherichia coli). Kind of assay: crystal structure; EcDUT^Q93H with 5 mM dUPNPP; hanging drop, 0.1 M TRIS, 18-33.75 % PEG 3350, 400 mM NaAc, pH 7.5, 295 K.
For assay [2], the target named is Escherichia coli dUTPase Q93R mutant (Escherichia coli). The assay can be described thus: steady-state enzyme inhibition; 50 nM dUTPase, 0-400 nM Stl, 5 min pre-incubation at 20 °C, 30 µM dUTP; 1 mM HEPES, 150 mM KCl, 5 mM MgCl2, 40 µM phenol red, pH 7.5; quadratic equation fitted, K is the Ki (IC50).
Assay [3] deals with Escherichia coli dUTPase Q93H mutant (Escherichia coli). The description is as above.
Assay [4] has as its target Escherichia coli dUTPase Q93R mutant (Escherichia coli).
The target in assay [5] is Escherichia coli dUTPase Q93H mutant (Escherichia coli).

In turn, “Escherichia coli dUTPase Q93H mutant (enzyme)” gave a stoichiometry N in assay [1] of 3.
“Stl_(SaPIbov1) protein (staphylococcal repressor) (natural protein)”: the Ki stood at 5.9 nM in assay [2] and 4.83 nM in assay [3]. The decrease of the steady-state velocity of dUTPase on Stl addition worked out at 47% in assay [4] and 58% in assay [5].

(Values after publication PMC6627510, “The Role of a Key Amino Acid Position in Species-Specific Proteinaceous dUTPase Inhibition” (Biomolecules, 2019).)
